The assay concerns the target T1, B7H4-Ig (R&D Systems, Inc. cat.#4206-B7) (mouse, UniProt Q7TSP5 29-256).
T1 construct: Bought reagent; also called Recombinant mouse B7-H4 protein (R&D Systems, CAT #4206-B7); not shown: Ig part of the bought fusion; not described
T1 sequence (looked up): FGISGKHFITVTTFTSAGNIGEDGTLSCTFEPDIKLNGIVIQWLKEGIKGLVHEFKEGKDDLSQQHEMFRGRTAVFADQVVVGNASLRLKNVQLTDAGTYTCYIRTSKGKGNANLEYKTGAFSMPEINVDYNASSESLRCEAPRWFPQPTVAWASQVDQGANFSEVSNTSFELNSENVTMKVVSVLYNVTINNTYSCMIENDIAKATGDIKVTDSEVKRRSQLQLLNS
The experiment in a line: BIAcore 3000 surface plasmon resonance; Fc fused AI216611 ECD (SEQ ID NO:104) immobilised directly on a CM5 chip (400-500 RU), B7H4-Ig injected at 5 and 10 µM, empty flow cell subtracted. On the procedure: Solution containing two different concentrations of B7H4-Ig (5 and 10 micro molar) was injected. As control, the solutions were also injected onto an empty flow cell with no ligand immobilized.
Data was analyzed using BIAevaluation software ([…].). A zero baseline level was obtained by subtracting the background responses from injection of the analytes through a control flow cell with no ligand immobilized.
Background: SPR reads the build-up and loss of mass on a sensor chip optically.

B1: AI216611_T0_P0_ECD_mFc (Fc fused AI216611 ECD, SEQ ID NO:104) (Fc fusion)
chain: LQSQGVSLYIPQATINATVKEDILLSVEYSCHGVPTIEWTYSSNWGTQKIVEWKPGTQANISQSHKDRVCTFDNGSIQLFSVGVRDSGYYVITVTERLGSSQFGTIVLHVSEILYEDGSENLYFQGSGEPRGPTIKPCPPCKCPAPNLLGGPSVFIFPPKIKDVLMISLSPIVTCVVVDVSEDDPDVQISWFVNNVEVHTAQTQTHREDYNSTLRVVSALPIQHQDWMSGKEFKCKVNNKDLPAPIERTISKPKGSVRAPQVYVLPPPEEEMTKKQVTLTCMVTDFMPEDIYVEWTNNGKTELNYKNTEPVLDSDGSYFMYSKLRVEKKNWVERNSYSCSVVHEGLHNHHTTKSFSRTPGK
notes: also called AI216611-ECD-Fc
With B1, the binding result is recorded as “binds”.

Values taken from patent publication US20120134997A1 (COMPUGEN, published 2012).
